From paper PMC2532717 (Nucleic Acids Research, 2008)

Molecular target: the molecule itself
Assay: cross-linking

B1: RecA (natural protein, B. subtilis, UniProt P16971 1-348, looked up)
chain: MSDRQAALDMALKQIEKQFGKGSIMKLGEKTDTRISTVPSGSLALDTALGIGGYPRGRIIEVYGPESSGKTTVALHAIAEVQQQGGQAAFIDAEHALDPVYAQKLGVNIEELLLSQPDTGEQALEIAEALVRSGAVDIVVVDSVAALVPKAEIEGDMGDSHVGLQARLMSQALRKLSGAINKSKTIAIFINQIREKVGVMFGNPETTPGGRALKFYSSVRLEVRRAEQLKQGNDVMGNKTKIKVVKNKVAPPFRTAEVDIMYGEGISKEGEIIDLGTELDIVQKSGSWYSYEEERLGQGRENAKQFLKENKDIMLMIQEQIREHYGLDNNGVVQQQAEETQEELEFEE
  binding result: binds

B2: RecUK56A (enzyme, B. subtilis)
chain: MIRYPNGKTFQPKHSVSSQNSQKRAPSYSNRGMTLEDDLNETNKYYLTNQIAVIHAKPTPVQIVNVHYPKRSAAVIKEAYFKQSSTTDYNGIYKGRYIDFEAKETKNKTSFPLQNFHDHQIEHMKQVKAQDGICFVIISAFDQVYFLEADKLFYFWDRKEKNGRKSIRKDELEETAYPISLGYAPRIDYISIIEQLYFSPSSGAKG
  stoichiometry N: 2

B3: RecUR71A (enzyme, B. subtilis)
chain: MIRYPNGKTFQPKHSVSSQNSQKRAPSYSNRGMTLEDDLNETNKYYLTNQIAVIHKKPTPVQIVNVHYPKASAAVIKEAYFKQSSTTDYNGIYKGRYIDFEAKETKNKTSFPLQNFHDHQIEHMKQVKAQDGICFVIISAFDQVYFLEADKLFYFWDRKEKNGRKSIRKDELEETAYPISLGYAPRIDYISIIEQLYFSPSSGAKG
  stoichiometry N: 2
